Laboratory results: article PMC7111720
Read-outs that look alike come from different tables or passages of the source.

T1: p22 (Tomato chlorosis virus (isolate AT80/99), UniProt Q001T4 1-193)
T1 sequence: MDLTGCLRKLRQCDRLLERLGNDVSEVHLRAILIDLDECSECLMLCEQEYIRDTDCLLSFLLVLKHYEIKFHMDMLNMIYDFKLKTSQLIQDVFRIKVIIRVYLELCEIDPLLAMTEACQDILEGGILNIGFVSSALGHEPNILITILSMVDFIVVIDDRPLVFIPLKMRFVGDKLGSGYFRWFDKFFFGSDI

B1: 21 nt small dsRNA, free 3' OH (dsRNA)
RNA 1: ACUGGAGUUGUCCCAAUUCUU
RNA 2: GAAUUGGGACAACUCCAGUGA
B2: 21 nt small dsRNA, DIG (dsRNA)
RNA 1: ACUGGAGUUGUCCCAAUUCUU
RNA 2: GAAUUGGGACAACUCCAGUGA
modifications: 3'-DIG on antisense strand

Experiments:
p22 [1] = target: T1, p22; test: EMSA
p22 [2] = target: T1, p22; test: EMSA; remark: listed apart in the source

| Binder | binding result (p22 [1]) | binding result (p22 [2]) |
| --- | --- | --- |
| B1 | no binding | – |
| B2 | – | no binding |
